5 molecules from publication PMC4121141, “Structural Basis for TatA Oligomerization: An NMR Study of Escherichia coli TatA Dimeric Structure” (PLoS ONE, 2014) can be followed below.

B1: MCG-TatA (wild-type E. coli TatA extended at the N-terminus by Met-Cys-Gly) (natural protein, Escherichia coli)
chain: MCGMGGISIWQLLIIAVIVVLLFGTKKLGSIGSDLGASIKGFKKAMSDDEPKQDKTSQDADFTAKTIADKQADTNQEQAKTEDAKRHDKEQV
notes: three additional amino acids Met-Cys-Gly at the N-terminus, numbered M(-3)C(-2)G(-1); TatA, Escherichia coli, wild type, 89 amino acids, Met1 kept after the extension; The single chain of the disulphide-linked dimer d-MCG-TatA; It is used here for the subunit-to-subunit rows of the dimer structure and of the cross-link; source: in C12E9 with Superdex 200 gel filtration for blue-native PAGE; …
B2: Escherichia coli TatA, wild type, full length (natural protein, UniProt P69428 1-89, looked up)
chain: MGGISIWQLLIIAVIVVLLFGTKKLGSIGSDLGASIKGFKKAMSDDEPKQDKTSQDADFTAKTIADKQADTNQEQAKTEDAKRHDKEQV
notes: TatA, Escherichia coli, 89 amino acids, one transmembrane helix (Ile6-Phe20) and one amphipathic helix (Lys24-Met43); 15N- or 13C/15N-labelled for NMR; also called wt-TatA; wild-type TatA; source: in C12E9 with Superdex 200 gel filtration for blue-native PAGE
B3: TatA_(1–55), truncated E. coli TatA (residues Met1-Gln55) (domain or fragment, Escherichia coli, UniProt P69428 1-55, looked up)
chain: MGGISIWQLLIIAVIVVLLFGTKKLGSIGSDLGASIKGFKKAMSDDEPKQDKTSQ
notes: TatA, Escherichia coli, residues Met1-Gln55; the unstructured C-terminal region removed; 15N-labelled in the relaxation and PRE experiments; source: purified in DPC
B4: TatA_(1–55)-I12C-MTSL (domain or fragment, Escherichia coli, UniProt P69428 1-55, looked up)
chain: MGGISIWQLLIC(MTSL)AVIVVLLFGTKKLGSIGSDLGASIKGFKKAMSDDEPKQDKTSQ
notes: TatA, Escherichia coli, residues Met1-Gln55 with Ile12 mutated to cysteine; source: purified in DPC, unlabeled, tagged with MTSL
B5: TatA_(1–55)-I11C-MTSL (domain or fragment, Escherichia coli, UniProt P69428 1-55, looked up)
chain: MGGISIWQLLC(MTSL)IAVIVVLLFGTKKLGSIGSDLGASIKGFKKAMSDDEPKQDKTSQ
notes: TatA, Escherichia coli, residues Met1-Gln55 with Ile11 mutated to cysteine; source: purified in DPC, unlabeled, tagged with MTSL

Series [1] concerns the molecule itself. The series can be described thus: solution NMR structure (intermolecular NOEs); disulphide-linked d-MCG-TatA of mixed unlabeled and 13C/15N-labeled MCG-TatA (2:1) in dDPC micelles, DPR about 80, 35°C; 13C/15N-filtered NOESY; 139 inter-subunit NOE restraints; Xplor-NIH.
Series [2] deals with the molecule itself. Put plainly: NMR 1H-15N HSQC at decreasing detergent-to-protein ratio; full-length TatA in DPC micelles, 50 mM sodium phosphate pH 7.0, 35°C; DPR lowered from >200; new sets of cross peaks appear.
Series [3] deals with the molecule itself. The series can be described thus: NMR backbone 15N relaxation (R2/R1); TatA_(1–55) in DPC micelles, DPR ~70, two sets of peaks in the HSQC, 800 MHz, 35°C; monomer to dimer.
The target in series [4] is B3. The series can be described thus: NMR intermolecular paramagnetic relaxation enhancement (PRE); unlabeled MTSL-tagged TatA_(1–55) cysteine mutant mixed at equal molar ratio with 15N-labeled TatA_(1–55) in DPC, 50 mM sodium phosphate pH 7.0, final DPR 40; reference spectrum after reduction with ascorbic acid. The settings on record: both partners purified.

Where no end group is shown, it is not given here. The star is where a group is joined. MTSL = 1-oxy-2,2,5,5-tetramethyl-D-pyrroline-3-methyl methanethiosulfonate spin label, CC1(C)C=C(CS*)C(C)(C)N1[O]

B1: the binding result in series [1] is “binds”.

As for B2, in series [2], the binding result was “binds”.

B3: the “stoichiometry N” value in series [3] was determined as 2.

Consider B4, for which the “stoichiometry N” value in series [4] was found to be 2.

In the case of B5, the binding result in series [4] is recorded as “binds”.
